The values that follow come from the RNAGym collection of RNA variant scans (doi:10.1073/pnas.2313332121).

The chains are these.
B1: TPR t1 (parent)
chain: GACCAAUCUGCCCUCAGAGCUCGAGAACAUCUUCGGAUGCAGAGGAGGCAGGCUUCGGUGGCGCGAUAGCGCCAACGUCCUCAACCUCCAAUGCAUCCCACCACAUGAUGAUGCCUGAAGAGCCUUGGUUUUUUG

The variants in the data set derive from B1. In words: polymerase ribozyme fitness, log enrichment relative to wild type (log ratio); higher = more active; in vitro selection for triplet polymerase activity. The gist of the method: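 Streptavidin-bead capture of gel-excised extended constructs, followed by RT-PCR, closed a single triplicate in vitro selection round. That round began by annealing PCR-built, transcribed mutant libraries of each subunit of a heterodimeric triplet polymerase ribozyme with a biotinylated primer, the partner subunit and triplets, then incubating them frozen at −7 °C. After Illumina sequencing of inputs and outputs, genotypes needed ≥10 input reads and ≥1 read per output. Fitness is the base-2 logarithm of genotype enrichment over wild-type enrichment, using inverse-variance-weighted replicate averages.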
Regarding C11G C28A, the “polymerase ribozyme fitness (log ratio)” value is -2.78.
As for C11G A37U A41U A95C U106C C124A, the figure is -1.05; as for C11A G39A U54A C72A, -1.51.
Then C11G C20G C73U U106A G107A, with -5.37.
Then C11A C28G G77U C98U G110U G135U, with -3.7; and C11G G19U C82U, with -5.29; and C11A C15A G51U G71A C99A G113C, with -8.01.
Regarding C11A G48A C70U C114U, the “polymerase ribozyme fitness (log ratio)” value was -6.22.
Then C11G C86G, with -1.7.
Then C11A C70U G117A, with -6.1; and C11A G36U G48C, with -3.57.
As for C11A C124U, the figure is 0.668; as for C11G G19A C53U C89A, -2.96.
As for C11G A18U G48U C49U G61A, the “polymerase ribozyme fitness (log ratio)” value was -3.32.
As for C11A G61A C104A G110A, the figure is -5.34.
As for C11G C13A C88G, the figure is -2.71; as for C11G C12U G113A A118U, -3.33.
Then C11G C13U U32C G65A G113C G120U, with -6.75; and C11G C72A C79U A90G C101G A121C U131A, with 0.276.
C11G C115G: the “polymerase ribozyme fitness (log ratio)” value was -1.35.
With C11G C56U A74U A84G G135U, the “polymerase ribozyme fitness (log ratio)” value is -1.8.
As for C11G A50C U92G C114A G122C U131C, the figure is -3.35.
As for C11G A41U G47C U59A, the “polymerase ribozyme fitness (log ratio)” value is -3.12.
Then C11G C22U, with -2.75; and C11A C13U A41U, with -2.84.
Then C11G A37C C88G, with -1.94.
Then C11G G17A G58A U106A U129A, with -5.54; and C11G C34U C49A G61A C123U, with -2.15; and C11A G47C C72G, with -3.64.
C11G A27G C85A U125A: the “polymerase ribozyme fitness (log ratio)” value is -2.01.
Then C11G C73U C80U, with -0.636.
Then C11A G42U U106A, with -3.49; and C11G C70U C79A, with -1.87.
Then C11A G52C C56A, with -2.98; and C11A C13G C115A, with -6.59.
Consider C11A C49U C73A C86U A95G U106G C123U, for which the “polymerase ribozyme fitness (log ratio)” value is -0.375.
Then C11G C28A C56U C124G, with -3.7.
As for C11G C56G, the figure is 0.087; as for C11G A29U A46G C72A A100C A119U, -3.42; as for C11A C20U G42C C53U, -4.13.
In the case of C11G A66G U106A, the “polymerase ribozyme fitness (log ratio)” value is -0.837.
As for C11G C13A G117C U132A U134G, the figure is -2.05.
Then C11A G45U G71A A121C U132A, with -0.447; and C11G C123G, with 0.989.
C11G C123U: the “polymerase ribozyme fitness (log ratio)” value stood at 0.785.
Then C11G C49A G61A G120U, with 2.28; and C11G A37C G61U, with -0.241; and C11G C20U A26C A27G G44U C114U, with -6.01.
As for C11G C49U G120C, the figure is 1.52; as for C11G C15G G63C A68U C80U C115G G127C G135C, -5.08.
Consider C11G C56U C76G U106A A119U, for which the “polymerase ribozyme fitness (log ratio)” value was -1.85.
As for C11G A18C U125A, the figure is -2.13; as for C11A U67C, -5.83.
Then C11A C64A A108U G110A, with -6.85; and C11G A121G, with 1.78.
Then C11G A121C, with 1.5; and C11G C13U C101G, with -1.63.
For the variant C11G C124A, the “polymerase ribozyme fitness (log ratio)” value is 2.13.
Then C11G C12A G63A, with -0.541.
Then C11G A41U G71C A90G G110U G135A, with -5.24; and C11A C70A A90G, with -3.13.
As for C11A C73U C76A U78G U131A, the figure is -4.06; as for C11G A41C C56U G93A C123G G135U, -3.49.
Consider C11A C88A, for which the “polymerase ribozyme fitness (log ratio)” value was -2.15.
As for C11A G47U G71A A83G G107C C124U, the figure is -7.17.
Then C11G A66U, with -0.995; and C11G C12G A46G G71U, with -0.917.
Regarding C11A C40G U129A, the “polymerase ribozyme fitness (log ratio)” value was -3.42.
As for C11A G60A U112A A118U, the “polymerase ribozyme fitness (log ratio)” value turned out to be 0.704.
As for C11G C76U G120A, the figure is 2.23; as for C11G C15A G61U U125G, -0.123.
As for C11A U87A, the figure is -1.66; as for C11G C64U C115U U130A, -1.38.
With C11A G42C C72A, the “polymerase ribozyme fitness (log ratio)” value is -1.79.
As for C11G A83U U106C, the “polymerase ribozyme fitness (log ratio)” value was -0.637.
Take C11G A41G C73G: the “polymerase ribozyme fitness (log ratio)” value is -0.55.
Then C11G A18G C49G C56U, with -3.38; and C11G C12A C40U C99U G117A C124G, with -6.76; and C11A U133A, with -2.64.
Then C11G A18G C89U U96A, with -4.23; and C11G C40U C53U U87A A90U U112A G127C, with -2.43; and C11G C28G G58U, with -2.76.
As for C11G C13G A111C A121G, the figure is 0.62.
